From publication PMC9917023 (2023)
Each block holds one binder with its values, some of them ahead of it. Non-standard residues stand in square brackets, D forms with d. No end group written: not given here.

Columns and labels:
full-length tau 441 [1] = target: T1, full-length tau 441 (Homo sapiens, UniProt P10636); test: SPR
tau R3 domain 304-336 = target: T2, tau R3 domain 304-336 (Homo sapiens, UniProt P10636); test: SPR
T2 chain: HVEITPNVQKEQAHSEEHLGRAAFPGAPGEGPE

full-length tau 441 [2] = target: T1, full-length tau 441; test: MST

T1 sequence (P10636 2-758): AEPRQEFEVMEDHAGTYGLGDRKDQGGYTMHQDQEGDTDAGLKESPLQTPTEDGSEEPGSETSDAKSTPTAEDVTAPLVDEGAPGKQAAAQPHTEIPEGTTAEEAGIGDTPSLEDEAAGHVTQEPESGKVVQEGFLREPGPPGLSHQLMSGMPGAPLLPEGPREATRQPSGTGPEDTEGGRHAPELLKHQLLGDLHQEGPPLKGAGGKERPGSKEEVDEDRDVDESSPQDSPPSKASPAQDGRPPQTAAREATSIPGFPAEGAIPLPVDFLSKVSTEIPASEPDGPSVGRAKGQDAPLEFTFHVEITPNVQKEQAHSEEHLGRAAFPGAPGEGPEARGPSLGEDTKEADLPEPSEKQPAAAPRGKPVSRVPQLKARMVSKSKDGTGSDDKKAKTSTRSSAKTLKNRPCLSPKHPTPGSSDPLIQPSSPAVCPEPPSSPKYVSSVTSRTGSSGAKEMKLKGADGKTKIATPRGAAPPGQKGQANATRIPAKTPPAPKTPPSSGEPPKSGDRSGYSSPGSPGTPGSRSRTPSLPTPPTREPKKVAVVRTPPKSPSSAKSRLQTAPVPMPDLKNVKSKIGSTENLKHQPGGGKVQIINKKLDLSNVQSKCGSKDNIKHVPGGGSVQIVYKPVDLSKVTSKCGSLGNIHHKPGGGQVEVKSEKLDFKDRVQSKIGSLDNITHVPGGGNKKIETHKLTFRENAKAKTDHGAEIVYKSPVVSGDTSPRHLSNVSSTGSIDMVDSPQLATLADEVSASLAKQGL

B2: TF2D-5a (peptide)
chain: [dD]GG[dY][dQ][dI][dL][dF][dK][dI][dP]GG[dH][dI][dH][dR][dR][dR][dR][dR]-NH2
modifications: N-terminus assumed
SMILES: CC[C@@H](C)[C@@H](NC(=O)[C@@H](Cc1c[nH]cn1)NC(=O)CNC(=O)CNC(=O)[C@H]1CCCN1C(=O)[C@H](NC(=O)[C@@H](CCCCN)NC(=O)[C@@H](Cc1ccccc1)NC(=O)[C@@H](CC(C)C)NC(=O)[C@H](NC(=O)[C@@H](CCC(N)=O)NC(=O)[C@@H](Cc1ccc(O)cc1)NC(=O)CNC(=O)CNC(=O)[C@H](N)CC(=O)O)[C@H](C)CC)[C@H](C)CC)C(=O)N[C@H](Cc1c[nH]cn1)C(=O)N[C@H](CCCNC(=N)N)C(=O)N[C@H](CCCNC(=N)N)C(=O)N[C@H](CCCNC(=N)N)C(=O)N[C@H](CCCNC(=N)N)C(=O)N[C@H](CCCNC(=N)N)C(N)=O
- Kd (tau R3 domain 304-336): 0.007 nM
- Kd (full-length tau 441 [1]): 6.1 nM

Binder: [dD]GG[dY][dQ][dI][dL][dF][dK][dI][dP]GG[dH][dI][dH][dR][dR][dR][dR][dR]-NH2 (also: CF633 label, position not given here)
- Kd (full-length tau 441 [2]): 11.7 nM

Next, values leading:

- Kd (full-length tau 441 [1]): 1.3 nM
B1: TF2D-5 (peptide)
chain: [dD]GG[dY][dQ][dI][dL][dF][dK][dI][dP]GG[dH][dI][dH]-NH2
modifications: N-terminus assumed
SMILES: CC[C@@H](C)[C@@H](NC(=O)[C@@H](Cc1c[nH]cn1)NC(=O)CNC(=O)CNC(=O)[C@H]1CCCN1C(=O)[C@H](NC(=O)[C@@H](CCCCN)NC(=O)[C@@H](Cc1ccccc1)NC(=O)[C@@H](CC(C)C)NC(=O)[C@H](NC(=O)[C@@H](CCC(N)=O)NC(=O)[C@@H](Cc1ccc(O)cc1)NC(=O)CNC(=O)CNC(=O)[C@H](N)CC(=O)O)[C@H](C)CC)[C@H](C)CC)C(=O)N[C@H](Cc1c[nH]cn1)C(N)=O

- Kd (full-length tau 441 [2]): 0.308 nM
Binder: [dD]GG[dY][dQ][dI][dL][dF][dK][dI][dP]GG[dH][dI][dH]-NH2 (also: CF633 label, position not given here)
